Read-outs that look alike come from different tables or passages of the source.
T1: human IL-33 (mm2) (human, UniProt O95760 112-270)
T1 chain: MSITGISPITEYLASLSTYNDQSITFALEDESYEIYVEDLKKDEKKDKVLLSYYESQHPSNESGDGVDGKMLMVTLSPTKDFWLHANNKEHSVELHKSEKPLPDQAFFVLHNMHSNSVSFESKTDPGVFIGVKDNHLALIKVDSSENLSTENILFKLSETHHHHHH

T2: cynomolgus monkey IL-33 (cys mut) (cynomolgus monkey)
T2 chain: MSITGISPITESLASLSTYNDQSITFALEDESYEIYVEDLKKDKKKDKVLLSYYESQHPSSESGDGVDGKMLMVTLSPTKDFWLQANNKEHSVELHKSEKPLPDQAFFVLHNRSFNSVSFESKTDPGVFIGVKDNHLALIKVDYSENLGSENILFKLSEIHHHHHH

T3: native human IL-33 from human lung fibroblast (HFL-1) lysate (human, UniProt O95760 1-270, limits assumed)
T3 sequence (looked up): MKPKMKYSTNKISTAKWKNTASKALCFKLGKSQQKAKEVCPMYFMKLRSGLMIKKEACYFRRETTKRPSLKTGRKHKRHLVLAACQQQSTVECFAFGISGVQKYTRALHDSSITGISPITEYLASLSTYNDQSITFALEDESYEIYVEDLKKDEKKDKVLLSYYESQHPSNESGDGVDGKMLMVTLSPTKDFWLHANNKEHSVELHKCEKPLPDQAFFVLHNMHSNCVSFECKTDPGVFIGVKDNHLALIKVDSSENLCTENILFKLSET


Tests used:
[1] = molecular target: T1, human IL-33 (mm2); experiment: cell-based or functional assay
[2] = molecular target: T2, cynomolgus monkey IL-33 (cys mut); experiment: cell-based or functional assay
[3] = molecular target: T2, cynomolgus monkey IL-33 (cys mut); experiment: SPR, IgG captured by anti-human Fc, IL-33 in solution
Method: (§1) Binding to human and cynomolgus monkey IL-33 was measured by surface plasmon resonance using a BIAcore T200 instrument. An anti-human Fc antibody was immobilized on a CM5 chip, and anti-IL-33 antibodies were captured.

[4] = molecular target: T1, human IL-33 (mm2); experiment: as above
Method: as §1

[5] = molecular target: T3, native human IL-33 from human lung …; experiment: cell-based or functional assay
[6] = molecular target: T1, human IL-33 (mm2); experiment: cell-based or functional assay
[7] = molecular target: T1, human IL-33 (mm2); experiment: cell-based or functional assay
[8] = molecular target: T1, human IL-33 (mm2); experiment: BIAcore, IgG captured by anti-human Fc, 125 nM IL-33 (mm2)
Method: as §1

[9] = molecular target: T1, human IL-33 (mm2); experiment: cell-based or functional assay

Binder	IC50, HEK293 ST2 NFkB [1]	% inhibition at 20 nM, HEK293 ST2 NFkB [2]	Kd [4]	% inhibition 0.1 nM Ab, HEK293 ST2 NFkB [5]	% inhibition 1 nM Ab, HEK293 ST2 NFkB [5]	% inhibition 10 nM Ab, HEK293 ST2 NFkB [5]	other results
7E8 chimera (antibody, human IgG1, kappa, V domains shown) VH: EVQLVETGGGLVQPGRSLKLSCKTSGFTFSSYWMYWIRQAPGKGLEWVSSITPNGGNTYYPDSVKGRFTISRDNAENTIYLQMSSLRSEDTATYFCAKGHYYYTSYSLGYWGQGSLVTVSS VL: EIQMTQSPSVLSASVGDRVTLSCKASQNINKHLDWYQQKLGEAPKLLIYFTNNLQTGIPSRFSGSGSGTDCTLTINSLQPGDVATYFCFQYNNGWTFGGGTKLELDR	0.049 nM	–	–	–	–	–	–
9B3 chimera (antibody, human IgG1, kappa, also called chimeric 9B3) heavy: EVQLVETGGGLVQPGRSLKLSCVASGFTFSNYWMYWIRQAPGMGLEWVSSINNDGGNTYYLDSVKGRFTISRNNAENTVYLQMNSLRSEDTATYYCAKGHYSYSSYSFSYWGQGTLVTVSSASTKGPSVFPLAPSSKSTSGGTAALGCLVKDYFPEPVTVSWNSGALTSGVHTFPAVLQSSGLYSLSSVVTVPSSSLGTQTYICNVNHKPSNTKVDKKVEPKSCDKTHTCPPCPAPEAAGAPSVFLFPPKPKDTLMISRTPEVTCVVVDVSHEDPEVKFNWYVDGVEVHNAKTKPREEQYNSTYRVVSVLTVLHQDWLNGKEYKCKVSNKALPAPIEKTISKAKGQPREPQVYTLPPSREEMTKNQVSLTCLVKGFYPSDIAVEWESNGQPENNYKTTPPVLDSDGSFFLYSKLTVDKSRWQQGNVFSCSVMHEALHNHYTQKSLSLSPGK light: DIQMTQSPSVLSASVGDRVTLSCKASHNINKHLDWCQQKVGEAPKLLIYFTNNLQTGIPSRFSGSGSGTDYTLTISSLQPEDVATYFCFQYNSGWTFGGGTKLELKRTVAAPSVFIFPPSDEQLKSGTASVVCLLNNFYPREAKVQWKVDNALQSGNSQESVTEQDSKDSTYSLSSTLTLSKADYEKHKVYACEVTHQGLSSPVTKSFNRGEC	–	35%	0.457 nM	52.5%	96%	111%	Kd [3]: 0.836 nM
9B3 chimera/hu J (antibody, human IgG1, kappa, also called 9B3 chimera huJseg) heavy: EVQLVETGGGLVQPGRSLKLSCVASGFTFSNYWMYWIRQAPGMGLEWVSSINNDGGNTYYLDSVKGRFTISRNNAENTVYLQMNSLRSEDTATYYCAKGHYSYSSYSFSYWGQGTLVTVSSASTKGPSVFPLAPSSKSTSGGTAALGCLVKDYFPEPVTVSWNSGALTSGVHTFPAVLQSSGLYSLSSVVTVPSSSLGTQTYICNVNHKPSNTKVDKKVEPKSCDKTHTCPPCPAPEAAGAPSVFLFPPKPKDTLMISRTPEVTCVVVDVSHEDPEVKFNWYVDGVEVHNAKTKPREEQYNSTYRVVSVLTVLHQDWLNGKEYKCKVSNKALPAPIEKTISKAKGQPREPQVYTLPPSREEMTKNQVSLTCLVKGFYPSDIAVEWESNGQPENNYKTTPPVLDSDGSFFLYSKLTVDKSRWQQGNVFSCSVMHEALHNHYTQKSLSLSPGK light: DIQMTQSPSVLSASVGDRVTLSCKASHNINKHLDWCQQKVGEAPKLLIYFTNNLQTGIPSRFSGSGSGTDYTLTISSLQPEDVATYFCFQYNSGWTFGQGTKVEIKRTVAAPSVFIFPPSDEQLKSGTASVVCLLNNFYPREAKVQWKVDNALQSGNSQESVTEQDSKDSTYSLSSTLTLSKADYEKHKVYACEVTHQGLSSPVTKSFNRGEC	0.056 nM	–	–	–	–	–	estimated IC50, HEK293 ST2 NFkB [6]: 0.061 nM; IC50, HEK293 ST2 NFkB [7]: 0.264 nM; koff [8]: 0.000451 s⁻¹
IL33-80 (antibody, human IgG1, kappa, V domains shown) VH: EVQLVESGGGLVQPGGSLRLSCAASGFTFSSYWMYWVRQAPGKGLEWVASITPNGGNTYYPDSVKGRFTISRDNAKNSLYLQMNSLRAEDTAVYYCARGHYYYTSYSLGYWGQGTLVTVSS VL: DIQMTQSPSSLSASVGDRVTITCKASQNINKHLDWYQQKPGKAPKLLIYFTNNLQDGVPSRFSGSGSGTDFTLTISSLQPEDFATYYCFQYNNGWTFGGGTKVEIKR	–	–	–	–	–	–	IC50, HEK293 ST2 NFkB [9]: 0.161 nM
IL33-81 (antibody, human IgG1, kappa, V domains shown) VH: EVQLVESGGGLVQPGGSLRLSCAASGFTFSSYWMYWVRQAPGKGLEWVASITPNGGNTYYPDSVKGRFTISRDNAKNSLYLQMNSLRAEDTAVYYCARGHYYYTSYSLGYWGQGTLVTVSS VL: DIQMTQSPSSLSASVGDRVTITCKASQNINKHLDWYQQKPGKAPKLLIYFTNNLQEGVPSRFSGSGSGTDFTLTISSLQPEDFATYYCFQYNNGWTFGGGTKVEIKR	–	–	–	–	–	–	IC50, HEK293 ST2 NFkB [9]: 0.168 nM
14D8 chimera/hu J (antibody, human IgG1, kappa, V domains shown, also called 14D8 huJseg) VH: EVQLVDSGGDQVQPGRSLKLSCVASGFIFKNYWMTWIRQVPGKGLEWIASITNSGGNTYYPDSVKGRFTISRDNAKDTLYLQMNSLRSEDTATYYCARDRRYNSGSPFAYWGQGTLVTVSS VL: DIQLTQSPSTLPASLGERVTISCRTSQSINNNLCWYQQKPDGTVKRLIYSTSTLESGVPSRFSGSGSGTDYSLSISSLESQDFAMYYCLQYATYPWTFGQGTKVEIKR	2.03 nM	11%	0.394 nM	61.1%	99.6%	107%	binding result [3]: no binding (tested: 125 nM)
12F9 chimera (antibody, human IgG1, kappa, V domains shown, also called chimeric 12F9) VH: EVQLVESGGDLVQPGRSLKLSCVTSGFIFKNYWMTWIRQVPGKGLEWVASITNTGGATYYPDSVKGRFTISRDNSENTLYLQMNSLRSEDTATYYCARDRRYNSGSPFAYWGQGTLVTVSS VL: DIQLTQSPSTLAASLGERVTISCRASQSISNSLIWFQQKPDGTIKRLIYSSSTLESGVPSRFSGSGSGTDYSLSISSLESEDFAMYYCLQYATYPWTFGGGTKLELRR	2.71 nM	3.6%	0.408 nM	44.3%	82.6%	104%	binding result [3]: no binding (tested: 125 nM)
30A1 chimera (antibody, human IgG1, kappa) heavy: QVNLLQSGATLVKPGASMKMSCKASGYSFTDYWVSWVKQSHGKSLEWIGEIYPNSGANNFNKEFKDKATLTVDKSTSTAYMELTRLTSEDSAVYYCTRGPYYYSSQIIFAYWGQGTLVTVSSASTKGPSVFPLAPSSKSTSGGTAALGCLVKDYFPEPVTVSWNSGALTSGVHTFPAVLQSSGLYSLSSVVTVPSSSLGTQTYICNVNHKPSNTKVDKKVEPKSCDKTHTCPPCPAPEAAGAPSVFLFPPKPKDTLMISRTPEVTCVVVDVSHEDPEVKFNWYVDGVEVHNAKTKPREEQYNSTYRVVSVLTVLHQDWLNGKEYKCKVSNKALPAPIEKTISKAKGQPREPQVYTLPPSREEMTKNQVSLTCLVKGFYPSDIAVEWESNGQPENNYKTTPPVLDSDGSFFLYSKLTVDKSRWQQGNVFSCSVMHEALHNHYTQKSLSLSPGK light: IIVMTQSPKSMSISVGDRVTMNCKASQNVGNNIAWYRQKPGQSPELLIYYASNRYTGVPDRFTGGGYGTDFTLTINSVQAEDAAFYYCQRIYNSPPTFGGGTKVELKRTVAAPSVFIFPPSDEQLKSGTASVVCLLNNFYPREAKVQWKVDNALQSGNSQESVTEQDSKDSTYSLSSTLTLSKADYEKHKVYACEVTHQGLSSPVTKSFNRGEC	0.27 nM	–	–	–	–	–	–
30A1 chimera/hu J (antibody, human IgG1, kappa, also called 30A1 hu Jseg) heavy: QVNLLQSGATLVKPGASMKMSCKASGYSFTDYWVSWVKQSHGKSLEWIGEIYPNSGANNFNKEFKDKATLTVDKSTSTAYMELTRLTSEDSAVYYCTRGPYYYSSQIIFAYWGQGTLVTVSSASTKGPSVFPLAPSSKSTSGGTAALGCLVKDYFPEPVTVSWNSGALTSGVHTFPAVLQSSGLYSLSSVVTVPSSSLGTQTYICNVNHKPSNTKVDKKVEPKSCDKTHTCPPCPAPEAAGAPSVFLFPPKPKDTLMISRTPEVTCVVVDVSHEDPEVKFNWYVDGVEVHNAKTKPREEQYNSTYRVVSVLTVLHQDWLNGKEYKCKVSNKALPAPIEKTISKAKGQPREPQVYTLPPSREEMTKNQVSLTCLVKGFYPSDIAVEWESNGQPENNYKTTPPVLDSDGSFFLYSKLTVDKSRWQQGNVFSCSVMHEALHNHYTQKSLSLSPGK light: IIVMTQSPKSMSISVGDRVTMNCKASQNVGNNIAWYRQKPGQSPELLIYYASNRYTGVPDRFTGGGYGTDFTLTINSVQAEDAAFYYCQRIYNSPPTFGGGTKVEIKRTVAAPSVFIFPPSDEQLKSGTASVVCLLNNFYPREAKVQWKVDNALQSGNSQESVTEQDSKDSTYSLSSTLTLSKADYEKHKVYACEVTHQGLSSPVTKSFNRGEC	–	–	0.54 nM	63.8%	98.5%	107%	Kd [3]: 0.197 nM

From patent US20180037644A1 (Pfizer, published 2018)
